Measurements from publication PMC9352680, “A comprehensive thermodynamic model for RNA binding by the Saccharomyces cerevisiae Pumilio protein PUF4”.
Where a chain is given by its changes, count along the chain named. Numbers in names are those of the source.

T1: PUF4 RNA-binding domain (Saccharomyces cerevisiae, UniProt P25339 537-888)
T1 sequence: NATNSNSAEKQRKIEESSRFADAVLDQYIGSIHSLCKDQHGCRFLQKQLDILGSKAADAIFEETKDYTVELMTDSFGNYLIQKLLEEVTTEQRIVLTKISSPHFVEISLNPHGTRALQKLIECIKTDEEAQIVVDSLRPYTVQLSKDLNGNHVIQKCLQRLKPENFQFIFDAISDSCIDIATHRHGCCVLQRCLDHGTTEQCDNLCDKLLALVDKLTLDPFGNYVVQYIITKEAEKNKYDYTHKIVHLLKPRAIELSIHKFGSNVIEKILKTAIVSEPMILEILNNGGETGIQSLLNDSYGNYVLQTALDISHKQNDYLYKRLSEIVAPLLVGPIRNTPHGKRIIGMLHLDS

B1: Ic_S2_P5E.1_K5.1_C5.1_H5.1_A5.1_[A7C]_F5.1_[T8C]_[T9A]_T5.1 (ssRNA)
RNA: UUUGAUUAAUAUGAUAUCGUUCUUUCUUGUAUUCCAAUUCUUUCUCGAUAUCAUAUUAAUCUUU
B2: Ic_S2_P5E.1_K5.1_C5.1_H5.1_A5.1_[T6A]_[A7T]_F5.1_[T8A]_[T9C]_[A10G]_T5.1 (ssRNA)
RNA: B1 RNA with U33A, C34U, C35A, A36C, A37G
B3: Ic_S2_P5E.1_K5.1_C5.1_H5.1_A5.1_[T5A]_[T6A]_F5.1_[T8C]_[T9A]_[A10C]_T5.1 (ssRNA)
RNA: B1 RNA with U32A, U33A, C34A, A37C
B4: Ic_S2_P5E.1_K5.1_C5.1_H5.1_A5.1_[T5G]_F5.1_[T8C]_[T9C]_[A10T]_T5.1 (ssRNA)
RNA: B1 RNA with U32G, C34A, A36C, A37U
B5: Ic_S2_P5E.1_K5.1_C5.1_H5.1_A5.1_[A7C]_F5.1_[T9G]_[A10G]_T5.1 (ssRNA)
RNA: B1 RNA with C35U, A36G, A37G
B6: Ic_S2_P5E.1_K5.1_C5.1_H5.1_A5.1_[T5C]_[T6G]_[A7T]_F5.1_[T8C]_[A10G]_T5.1 (ssRNA)
RNA: B1 RNA with U32C, U33G, C34U, A36U, A37G
B7: Ic_S2_P5E.1_K5.1_C5.1_H5.1_A5.1_[T6A]_[A7C]_F5.1_[T8C]_[T9G]_[A10G]_T5.1 (ssRNA)
RNA: B1 RNA with U33A, A36G, A37G
B8: Ic_S2_P5E.1_K5.1_C5.1_H5.1_A5.1_[T5G]_[T6C]_[A7T]_F5.1_[T8G]_[T9G]_[A10T]_T5.1 (ssRNA)
RNA: B1 RNA with U32G, U33C, C34U, C35G, A36G, A37U
B9: Ic_S2_P5E.1_K5.1_C5.1_H5.1_A5.1_[T5G]_[A7G]_F5.1_[T8C]_[T9C]_T5.1 (ssRNA)
RNA: B1 RNA with U32G, C34G, A36C
B10: Ic_S2_P5E.1_K5.1_C5.1_H5.1_A5.1_[T6C]_F5.1_[T8G]_[A10C]_T5.1 (ssRNA)
RNA: B1 RNA with U33C, C34A, C35G, A36U, A37C
B11: Ic_S2_P5E.1_K5.1_C5.1_H5.1_A5.1_[T5C]_[A7T]_F5.1_[T8G]_[A10T]_T5.1 (ssRNA)
RNA: B1 RNA with U32C, C34U, C35G, A36U, A37U
B12: Ic_S2_P5E.1_K5.1_C5.1_H5.1_A5.1_[T5A]_F5.1_[T9G]_[A10G]_T5.1 (ssRNA)
RNA: B1 RNA with U32A, C34A, C35U, A36G, A37G
B13: Ic_S2_P5E.1_K5.1_C5.1_H5.1_A5.1_[T5A]_[T6C]_[A7C]_F5.1_[T8G]_T5.1 (ssRNA)
RNA: B1 RNA with U32A, U33C, C35G, A36U
B14: Ic_S2_P5E.1_K5.1_C5.1_H5.1_A5.1_[T6C]_[A7T]_F5.1_[T8A]_[T9C]_[A10G]_T5.1 (ssRNA)
RNA: B1 RNA with U33C, C34U, C35A, A36C, A37G
B15: Ic_S2_P5E.1_K5.1_C5.1_H5.1_A5.1_[T5A]_[T6C]_[A7C]_F5.1_[T8A]_[T9C]_[A10C]_T5.1 (ssRNA)
RNA: B1 RNA with U32A, U33C, C35A, A36C, A37C
B16: Ic_S2_P5E.1_K5.1_C5.1_H5.1_A5.1_[T5G]_[A7T]_F5.1_[T8C]_[A10T]_T5.1 (ssRNA)
RNA: B1 RNA with U32G, C34U, A36U, A37U
B17: Ic_S2_P5E.1_K5.1_C5.1_H5.1_A5.1_[T5A]_F5.1_[T8C]_[T9G]_[A10C]_T5.1 (ssRNA)
RNA: B1 RNA with U32A, C34A, A36G, A37C
B18: Ic_S2_P5E.1_K5.1_C5.1_H5.1_A5.1_[T6C]_[A7T]_F5.1_[T9C]_[A10C]_T5.1 (ssRNA)
RNA: B1 RNA with U33C, C34U, C35U, A36C, A37C
B19: Ic_S2_P5E.1_K5.1_C5.1_H5.1_A5.1_[T6G]_[A7G]_F5.1_[T8C]_[A10C]_T5.1 (ssRNA)
RNA: B1 RNA with U33G, C34G, A36U, A37C
B20: Ic_S2_P5E.1_K5.1_C5.1_H5.1_A5.1_[T5A]_[A7T]_F5.1_[T8A]_[A10C]_T5.1 (ssRNA)
RNA: B1 RNA with U32A, C34U, C35A, A36U, A37C
B21: Ic_S2_P5E.1_K5.1_C5.1_H5.1_A5.1_[T6C]_[A7C]_F5.1_[T8A]_[T9G]_[A10C]_T5.1 (ssRNA)
RNA: B1 RNA with U33C, C35A, A36G, A37C
B22: Ic_S2_P5E.1_K5.1_C5.1_H5.1_A5.1_[T5C]_[A7T]_F5.1_[T8C]_[T9C]_[A10C]_T5.1 (ssRNA)
RNA: B1 RNA with U32C, C34U, A36C, A37C
B23: Ic_S2_P5E.1_K5.1_C5.1_H5.1_A5.1_[A7T]_F5.1_[T9C]_[A10T]_T5.1 (ssRNA)
RNA: B1 RNA with C34U, C35U, A36C, A37U
B24: Ic_S2_P5E.1_K5.1_C5.1_H5.1_A5.1_[T5G]_[A7G]_F5.1_[T8G]_[T9C]_[A10C]_T5.1 (ssRNA)
RNA: B1 RNA with U32G, C34G, C35G, A36C, A37C
B25: Ic_S2_P5E.1_K5.1_C5.1_H5.1_A5.1_[T5A]_[A7T]_F5.1_[T8C]_[T9A]_[A10C]_T5.1 (ssRNA)
RNA: B1 RNA with U32A, C34U, A37C
B26: Ic_S2_P5E.1_K5.1_C5.1_H5.1_A5.1_[T5A]_[T6C]_[A7G]_F5.1_[T8G]_[T9C]_[A10C]_T5.1 (ssRNA)
RNA: B1 RNA with U32A, U33C, C34G, C35G, A36C, A37C

Molecular target: T1, PUF4 RNA-binding domain
Experiment: Mg; RNA-MaP; 20 mM Na-HEPES pH 7.4, 30 mM KOAc, 0.75 mM MgCl2, 0.1% Tween-20, 5% glycerol, 0.1 mg/mL BSA, 2 mM DTT; 25 C; 0.0125-409.6 nM protein
Conditions: tags: N-His6-TEV cleaved; C-SNAP kept, Cy3B-labelled; label: tethered on chip by stalled RNA polymerase

Row | Binder | Kd [nM]
1 | UCUCUUUUUAUAUUGUCUCUU (ssRNA) [Ib_S1_P4E.1_K4.1_C4.1_H4.1_[G2T]_A4.1_F4.1_[A9G]_T4.1] | > 2300
2 | UCUCUUCGUAUAUUUUCUCUU (ssRNA) [Ib_S1_P4E.1_K4.1_C4.1_H4.1_[T1C]_A4.1_F4.1_[A9T]_T4.1] | 1420
3 | UCUCUUGGUAUAUUUUCUCUU (ssRNA) [Ib_S1_P4E.1_K4.1_C4.1_H4.1_[T1G]_A4.1_F4.1_[A9T]_T4.1] | 1210
4 | B1 | 622
5 | B2 | 8.49
6 | B3 | 128
7 | B4 | 413
8 | B5 | 23.5
9 | B6 | 1250
10 | B7 | 82
11 | B8 | 679
12 | B9 | 983
13 | B10 | 218
14 | B11 | 28.3
15 | B12 | 75.2
16 | B13 | 12.9
17 | B14 | 26.1
18 | B15 | 1060
19 | B16 | 126
20 | B17 | 1050
21 | B18 | 14
22 | B19 | 543
23 | B20 | 113
24 | B21 | 1560
25 | B22 | 149
26 | B23 | 16.4
27 | B24 | > 2300
28 | B25 | 599
29 | B26 | > 2300
